{"source": "patent KR20150063728A", "about": "(dated 2015)", "binders": {"B1": {"name": "SAIT-VEGFC-AB-4A2 (scFv 형태의 항-VEGF-C 항체) (scFv, V domains shown)", "VH": "EVQLLESGGGLVQPGGSLRLSCAASGFTFSSYDMSWVRQAPGKGLEWVSAISYDNGSTYYADSVKGRFTISRDNSKNTLYLQMNSLRAEDTAVYYCARDPYLARLNTFDYWGQGTLVTVSS", "VL": "QSVLTQPPSASGTPGQRVTISCSGSSSNIGSNNVSWYQQLPGTAPKLLIYYNSHRPSGVPDRFSGSKSGTSASLAISGLRSEDEADYYCATWDSSLNGYVFGGGTKLT", "notes": "Tested as library scFv (Ni-NTA purified, anti-HA detection)"}}, "key": {"[1]": {"target": "T1, 인간 VEGF-C 폴리펩타이드 (Human VEGF-C; R&D systems; Accession # P49767) (human, UniProt P49767 103-227)", "T1 construct": "Bought; also called hVEGF-C", "T1 sequence (looked up)": "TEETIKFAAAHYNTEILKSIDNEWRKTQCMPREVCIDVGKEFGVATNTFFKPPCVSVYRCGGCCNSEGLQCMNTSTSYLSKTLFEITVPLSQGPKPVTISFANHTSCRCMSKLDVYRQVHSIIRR", "assay": "ELISA, coated human VEGF-C, scFv detected with anti-HA-HRP; 50% binding concentration (Kd)"}, "[2]": {"target": "T2, FLAG-Tagging 된 hVEGF-C (Accession # P49767) (human, UniProt P49767 103-227, limits assumed)", "T2 construct": "also called FLAG-Tagging 된 VEGF-C; not shown: FLAG tag", "T2 sequence (looked up)": "T1 sequence (looked up)", "assay": "competitive ELISA: scFv inhibits FLAG-hVEGF-C binding to coated hVEGR-R3-Fc"}}}
{"binder": "B1", "values": [{"measurement": "Kd", "setting": "[1]", "value": 26.2, "unit": "nM"}, {"measurement": "IC50", "setting": "[2]", "value": 33.4, "unit": "nM"}]}
